Data from patent US20240115742A1, “FLUORINATED FIBERS FOR MULTIMODAL 1H AND 19F MRI, ULTRASOUND, FLUORESCENCE DETECTION AND CONFORMATIONAL AND TEMPERATURE DETECTION BY 19F MRS” (New York University, priority 2022, published 2024).
Where “and” joins values, the source holds several entries; their conditions need not be identical. Identical values can stand only once. Like-named read-outs stand apart in the source and are kept apart here. Square brackets hold non-standard residues; d marks the D form. Ends that are not written are not given here. LTF = trifluoroleucine

Columns and labels:
[1] = Curcumin binding by fluorescence spectroscopy; settings: 15 μM protein, 1% v/v DMSO
Protocol: Drug Binding. Protein variants were bound to curcumin (CCM) in increasing CCM:protein ratios at 1:1 to 10:1. Protein was diluted to a final concentration of 15 μM before CCM solubilized in DMSO was added to the protein sample at a final 1% v/v DMSO. Samples were incubated on a thermomixer for 30 min at 300 rpm in the dark at 4° C. Samples were then removed and 300 μL of each sample was added to a 96-well solid black plate. Protein variants were excited at 420 nm and emission was read at 520 nm using a BioTek Synergy H1 microplate reader at RT. The baseline spectra of CCM, at 15-150 μM in 50 mM PB pH 4.0 containing 1% v/v DMSO, was subtracted from the fluorescence intensities of the protein-CCM at corresponding concentrations. Resulting normalized relative fluorescence intensities were analyzed using Specific binding kinetics in GraphPad Prism (GraphPad Software).
Curcumin Binding. CCM was bound to Q2LTF. […] Samples were loaded onto a 96-well black plate and excited at 420 nm and emission was read at 520 nm using a BioTek Synergy H1 microplate reader at room temperature (RT). Normalized relative fluorescence intensities were calculated and analyzed in Graphpad Prism (GraphPad Software). Binding affinity was calculated using the specific binding kinetics equation.

[2] = Linear regression model predictions; settings: from 181.7 nm fiber diameter
Protocol: A linear model was previously established correlating the increase in thermostability upon binding CCM, and the loss of ordered structure as measured by ATR-FTIR. Based on this model, a 14.5% loss of structure is predicted, which translates to an error of just 0.4% from a measured structure loss of 14.1%, within the root mean squared error (RMSE) of the model, which is calculated here to be 0.9%. […] While CCM-binding imposes a negative impact on the ordered structure of the coiled-coil, a loss of secondary structure measured by ATR-FTIR has been associated with a positive interaction of CCM in the hydrophobic pore, which helps stabilize the protein and increase thermostability. Thus, the fluorination of Q2LTF results in a strengthened interaction with CCM.
Binding of CCM causes fiber thickening of Q2LTF (FIG. 34d, 44), consistent with recent analysis of supramolecular coiled-coil fibers. Fiber-thickening by CCM has been established for collagen activity as well as coiled-coil fibers and is explained by increased solvation of polar groups and burying of the hydrophobic residues leading to increased surface activity. […] While this relationship was assessed for non-fluorinated CCM fibers, the predicted fiber diameter is […] based on a 181.7 nm Q2LTF fiber diameter translating to an error of […], just outside our model's root mean squared error (RMSE) of […] (FIG. 45). […]

Cryo-EM of Q5 gel = type: physicochemical
Protocol: Cryo-Electron Microscopy. Lacey Carbon 300 mesh copper grids (Ted Pella) were used for cryo-EM imaging on FEI TALOS F200C with Ceta 16M camera at 200 kV accelerating voltage. PELCO easiGlow™ Glow Discharge Cleaning System was also used for the plasma treatment of the grids.
Cryo-EM. Cryo-EM samples were prepared with the Vitrobot system (Thermo Fisher Scientific) which can help vitrify a thin solution layer at low temperature. Approximately 4 μl of sample solution was applied to the grids in the chamber of Vitrobot at 4° C. and 100% humidity. The sample solution was incubated for 10 s and then the grid was blotted three times. Blotting lasted 1 s for each time. […] Then, the grid was transferred into liquid nitrogen. The cryo-EM holder was kept at −175° C. to prevent solvent crystallization during the imaging. Coarse-grained Model Details. Each bond is defined by Equation 10: […]

[3] = Small angle X-ray scattering of Q5; type: physicochemical
Protocol: Small Angle X-ray Scattering (SAXS). SAXS was employed to measure interparticle interactions, structure, and shape of Q5 since it was capable of gelation in the instrument holder within 24 h. SAXS experiments were performed at the National Synchrotron Light Source-II (NSLS-II) Beamline 16-ID (LiX) at Brookhaven National Laboratory.
Small Angle X-ray Scattering (SAXS). All measurements were taken within 12 h of concentration of the protein from the dialysis bag. To study Q5 as an isolated particle, 150 μM (˜1 mg/mL) protein and dialysis buffer (50 mM Tris 500 mM NaCl pH 8.0) was loaded into a flow cell and measured in the q range […] to 3.19 Å^−1. The Q5 protein transition from solution to hydrogel was measured by incubation at 4° C. of 3 mM of Q5 protein in an eight-slot holder capable of loading 30 μL of each sample. Between measurements, the holder was returned for incubation at 4° C. Independent slots were used to load six samples of the Q5 hydrogel in solution including one for the empty cell and one for the dialysis buffer. Each slot was measured once incrementally over a 24 h incubation window to negate the impact of radiation (except for the measurement made at 24 h which was measured from the previous time point sample due to sample error in the last slot holder, however, a negligible impact of radiation was observed). Similarly, Q5 hydrogel measurements made at 3 mM and 4° C. were measured in the q range 0.005 Å^−1 to 3.19 Å^−1. Kratky plots were calculated by Guinier analysis of Rg and I(0) values. Flory exponents were calculated using MFF fit by Sosnick group online tool. Pair distance distribution function, P(r), was calculated using primus (ATSAS software).

[4] = system: type 2 mouse diabetic wound; assay: Diabetic mouse wound model; type: in vivo; settings: vs exosomes alone and untreated mice
[5] = measured in Q previously; cited from earlier work
[6] = Q, previous results; cited from earlier work
[7] = previous studies, cited from earlier work
[8] = Q as previously described; cited from earlier work
[9] = 10 Hz, Q as reported previously; cited from earlier work

In the case of “Q2LTF: protein-engineered fluorinated coiled-coil fiber, Q2 with trifluoroleucine, SEQ ID NO: 20 (MRGSHHHHHHGSIEGRVKE[LTF][LTF]F[LTF]KKTAEQM[LTF]EE[LTF]KETNKA[LTF]HDVRH[LTF][LTF]ENQSK[LTF]; ends and bridges not checked) [Protein Q2LTF]”, the Kd [1] is reported as 0.06 μM:μM [protein:CCM] and the “predicted CCM-thickened fiber diameter” value [2] is reported as 12.9 μm.

For “Q5: Q hydrogel variant from Rosetta Monte Carlo search, SEQ ID NO: 14 (MRGSHHHHHHGSIEGRVKEITFIKKTIEQIAEEMKEINKAIHDIRHALENISKK) [Protein Q5]”, the “fiber diameter (cryo-EM)” value (Cryo-EM of Q5 gel; 0.5 mM, n=100) was 3.4±0.7 nm, the “fiber diameter (cryo-EM)” value (Cryo-EM of Q5 gel; 1 mM, n=100) was 5.6±2.1 nm and the “fiber spacing by FFT” value (Cryo-EM of Q5 gel; 2 mM) was 14-17 nm. For the same substance, the “crosslinked fiber diameter (cryo-EM)” value (Cryo-EM of Q5 gel; 2 mM, n=100) was 5.8±1.5 nm, the “P(r) distribution centre” value ([3]; 150 μM, 0 h at 4 °C) was 22.5 Å and the “average step-size increase of P(r) peaks” value ([3]; 3 mM, 24 h at 4 °C) was 39.1±4.2 Å. For the same substance, the cylinder length ([3]; assuming cylindrical shape) was 6.8±0.4 nm and the diabetic wound closure [4] was “faster time to closure”.

For “Q: rationally designed pentameric coiled-coil derived from C, SEQ ID NO: 23 (MRGSHHHHHHGSIEGRVKEITFLKNTAPQMLRELQETNAALQDVRELLRQQSKL) [reference compound]”, the protofibril diameter [5] is given as 3.5±0.5 nm, the “α-helical secondary structure upon gelation” value [6] is given as 52% and the melting temperature ([7]; 50 mM Na2HPO4 pH 4.0) is given as 55.3 °C. For the same substance, the melting temperature ([7]; 50 mM Na2HPO4 pH 10.0) was 46.4 °C, the UCST [8] was ~16 °C and 16.2 °C and the “storage modulus G′” value [9] was 50.4 Pa and 50 Pa.
